From patent US20250172568A1 (TRUSTEES OF DARTMOUTH COLLEGE, published 2025)

Columns and labels:
[1] = molecular target: T1, FcγRIIIa V158 (recombinantly expressed, monomeric) (human, UniProt P08637 17-208); assay: BLI (Octet), mAb on HLA-A2 antigen tips, monomeric FcγRIIIa V158; dissociation rate printed as 'KD'; the value is the MEAN over afucosylated IgG1 and IgG3
T1 construct: also called biotinylated FcγRIIIa V158 tetramers
Description: (§1) Antibody-Receptor dissociation kinetics measurement by Biolayer Interferometry (BLI). […] Streptavidin tips were first coated with biotinylated HLA-A2 antigens. After establishing a signal baseline, the tips were loaded with HLA-A2-specific antibodies, dipped into the buffer for baseline, and then finally dipped into a solution of recombinantly expressed FcγRIIIa V158 monomers. Following receptor association, tips were dipped into a buffer, which allowed receptor dissociation. The dissociation rate of FcγR was defined relatively to a reference tip which was not dipped into the receptor.
(§2) High Precision Streptavidin 2.0 (SAX2) biosensor tips (Sartorius) were used to determine the kinetics of HLA-A2-specific IgG binding to human FcγRIIIa and FcγRI by biolayer interferometry (BLI) on an Octet (Forte Bio) instrument. Streptavidin (SA) biosensor tips were first loaded with HLA-A2 antigen, followed by HLA-A2 antibody, and finally dipped into FcγR to study the antibody-receptor kinetics. Biosensors were equilibrated with 0.05% Tween-PBS for 60 s, loaded with 0.25 μg/mL biotinylated HLA-A2 antigen (in 0.05% Tween-PBS) until they reached the threshold of 1 nm, and then dipped into 0.05% Tween-PBS to reach baseline for 60 s. […]

[2] = molecular target: T2, FcγRI (human, UniProt P12314 16-288); assay: BLI (Octet), mAb on HLA-A2 antigen tips, 292 nM FcγRI in solution
T2 construct: also called human FcγRI
T2 sequence (P12314 16-288 limits assumed): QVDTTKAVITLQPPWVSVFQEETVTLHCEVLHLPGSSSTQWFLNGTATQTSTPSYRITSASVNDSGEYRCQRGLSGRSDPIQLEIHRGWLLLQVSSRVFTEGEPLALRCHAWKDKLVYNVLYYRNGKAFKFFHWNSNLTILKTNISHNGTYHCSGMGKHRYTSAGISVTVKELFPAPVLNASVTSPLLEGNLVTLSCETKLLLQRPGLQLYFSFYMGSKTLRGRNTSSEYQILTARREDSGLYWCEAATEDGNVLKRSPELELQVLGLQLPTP
Protocol: High Precision Streptavidin 2.0 (SAX2) biosensor tips (Sartorius) were used to determine the kinetics of HLA-A2-specific IgG binding to human FcγRIIIa and FcγRI by biolayer interferometry (BLI) on an Octet (Forte Bio) instrument. Streptavidin (SA) biosensor tips were first loaded with HLA-A2 antigen, followed by HLA-A2 antibody, and finally dipped into FcγR to study the antibody-receptor kinetics. Biosensors were equilibrated with 0.05% Tween-PBS for 60 s, loaded with 0.25 μg/mL biotinylated HLA-A2 antigen (in 0.05% Tween-PBS) until they reached the threshold of 1 nm, and then dipped into 0.05% Tween-PBS to reach baseline for 60 s. […] To improve signal to noise, serum IgG was purified using Melon gel (Thermo) according to the manufacturer's instructions. Polyclonal serum IgG was loaded for 2,400 s. For FcγR dissociation rate (kd) determination, two SAX2 biosensor tips were used, one for the measurement and one as a reference to subtract background signal changes due to dissociation of other components, such as dissociation of HLA-A2-specific IgG from biotinylated HLA. Reference biosensors loaded with IgGs were dipped into buffer (0.05% Tween-PBS) instead of receptors. Finally, the sensors were dipped into 0.05% Tween-PBS for 180 s and 300 s for the dissociation of FcγRIIIa and FcγRI, respectively.

[3] = molecular target: T1, FcγRIIIa V158 (recombinantly expressed, …); assay: BLI (Octet), mAb on HLA-A2 antigen tips, monomeric FcγRIIIa V158; dissociation rate printed as 'KD'; the value is the MEAN over unmodified IgG1 and IgG3
Description: as §1, §2

T1 sequence (P08637 17-208 F176V limits assumed): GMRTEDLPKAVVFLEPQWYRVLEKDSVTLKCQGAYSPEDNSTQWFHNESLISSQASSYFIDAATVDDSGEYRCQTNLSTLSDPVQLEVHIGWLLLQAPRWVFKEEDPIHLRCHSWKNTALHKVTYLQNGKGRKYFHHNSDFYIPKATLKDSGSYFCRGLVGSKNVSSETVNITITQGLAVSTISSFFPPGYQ

Binder	koff [1] [s⁻¹]	binding result [2]	koff [3] [s⁻¹]
afucosylated BB7.2 IgG1 (HLA-A2-specific chimeric mAb) (antibody, also called afucosylated IgG1; afucosylated HLA-A2 mAb) heavy: not shown light: DVLMTQTPLSLPVSLGDQVSISCRSSQSIVHSNGNTYLEWYLQKPGQSPKLLIYKVSNRFSGVPDRFSGSGSGTDFTLKISRVEAEDLGVYYCFQGSHVPRTFGGGTKLEIKRADAAPTVSIFPPSSEQLTSGGASVVCFLNNFYPKDINVKWKIDGSERQNGVLNSWTDQDSKDSTYSMSSTLTLTKDEYERHNSYTCEATHKTSTSPIVKSFNRNEC	0.021	binds	–
afucosylated BB7.2 IgG3 (HLA-A2-specific chimeric mAb) (antibody, also called afucosylated IgG3; afucosylated HLA-A2 mAb) heavy: QVQLQQSGPELVKPGASVKMSCKASGYTFTSYHIQWVKQRPGQGLEWIGWIYPGDGSTQYNEKFKGKTTLTADKSSSTAYMLLSSLTSEDSAIYFCAREGTYYAMDYWGQGTSVTVSSAKTTPPSVYPLAPGCGDTTGSSVTLGCLVKGYFPESVTVTWNSGSLSSSVHTFPALLQSGLYTMSSSVTVPSSTWPSQTVTCSVAHPASSTTVDKKLELKTPLGDTTHTCPRCPEPKSCDTPPPCPRCPEPKSCDTPPPCPRCPEPKSCDTPPPCPRCPAPELLGGPSVFLFPPKPKDTLMISRTPEVTCVVVDVSHEDPEVQFKWYVDGVEVHNAKTKPREEQYNSTFRVVSVLTVLHQDWLNGKEYKCKVSNKALPAPIEKTISKTKGQPREPQVYTLPPSREEMTKNQVSLTCLVKGFYPSDIAVEWESSGQPENNYNTTPPMLDSDGSFFLYSKLTVDKSRWQQGNIFSCSVMHEALHNRFTQKSLSLSPGK light: DVLMTQTPLSLPVSLGDQVSISCRSSQSIVHSNGNTYLEWYLQKPGQSPKLLIYKVSNRFSGVPDRFSGSGSGTDFTLKISRVEAEDLGVYYCFQGSHVPRTFGGGTKLEIKRADAAPTVSIFPPSSEQLTSGGASVVCFLNNFYPKDINVKWKIDGSERQNGVLNSWTDQDSKDSTYSMSSTLTLTKDEYERHNSYTCEATHKTSTSPIVKSFNRNEC	0.021	binds	–
BB7.2 IgG1 (HLA-A2-specific chimeric mAb, unmodified / fucosylated) (antibody, also called HLA-A2 IgG1 mAb; unmodified HLA-A2 mAb) heavy: not shown light: DVLMTQTPLSLPVSLGDQVSISCRSSQSIVHSNGNTYLEWYLQKPGQSPKLLIYKVSNRFSGVPDRFSGSGSGTDFTLKISRVEAEDLGVYYCFQGSHVPRTFGGGTKLEIKRADAAPTVSIFPPSSEQLTSGGASVVCFLNNFYPKDINVKWKIDGSERQNGVLNSWTDQDSKDSTYSMSSTLTLTKDEYERHNSYTCEATHKTSTSPIVKSFNRNEC	–	binds	0.46
BB7.2 IgG3 (HLA-A2-specific chimeric mAb, unmodified / fucosylated) (antibody, also called HLA-A2 IgG3 mAb; unmodified HLA-A2 mAb) heavy: QVQLQQSGPELVKPGASVKMSCKASGYTFTSYHIQWVKQRPGQGLEWIGWIYPGDGSTQYNEKFKGKTTLTADKSSSTAYMLLSSLTSEDSAIYFCAREGTYYAMDYWGQGTSVTVSSAKTTPPSVYPLAPGCGDTTGSSVTLGCLVKGYFPESVTVTWNSGSLSSSVHTFPALLQSGLYTMSSSVTVPSSTWPSQTVTCSVAHPASSTTVDKKLELKTPLGDTTHTCPRCPEPKSCDTPPPCPRCPEPKSCDTPPPCPRCPEPKSCDTPPPCPRCPAPELLGGPSVFLFPPKPKDTLMISRTPEVTCVVVDVSHEDPEVQFKWYVDGVEVHNAKTKPREEQYNSTFRVVSVLTVLHQDWLNGKEYKCKVSNKALPAPIEKTISKTKGQPREPQVYTLPPSREEMTKNQVSLTCLVKGFYPSDIAVEWESSGQPENNYNTTPPMLDSDGSFFLYSKLTVDKSRWQQGNIFSCSVMHEALHNRFTQKSLSLSPGK light: DVLMTQTPLSLPVSLGDQVSISCRSSQSIVHSNGNTYLEWYLQKPGQSPKLLIYKVSNRFSGVPDRFSGSGSGTDFTLKISRVEAEDLGVYYCFQGSHVPRTFGGGTKLEIKRADAAPTVSIFPPSSEQLTSGGASVVCFLNNFYPKDINVKWKIDGSERQNGVLNSWTDQDSKDSTYSMSSTLTLTKDEYERHNSYTCEATHKTSTSPIVKSFNRNEC	–	binds	0.46
